Blank lines part the entries; values can stand above or below the substance they belong to.
Key:
[1] = target: recombinant human p75-TNF-R-human IgGγ3 fusion protein (human) (UniProt P20333); test: calculated from FIG. 7: competition with 125I-TNFα on plates coated with receptor-IgGγ3 fusions; reference: the same mutein on p55-TNF-R-IgGγ3
[2] = target: native human p75-TNF-R purified from HL60 cells (human) (UniProt P20333); test: competition with 125I-TNFα for p75-TNF-R
[3] = target: human p75-Tumor-Necrosis-Factor-Receptor on U937 cells (human) (UniProt P20333); test: 125I-TNF-α competition, U937 cells, exp 2, mutant 1.2 × 10^-7 mol
[4] = target: human p75-Tumor-Necrosis-Factor-Receptor on U937 cells (human) (UniProt P20333); test: competition assay on U937 cells
[5] = target: human p75-Tumor-Necrosis-Factor-Receptor on U937 cells (human) (UniProt P20333); test: 125I-TNF-α competition, U937 cells, exp 1, mutant 3.2 × 10^-8 mol
[6] = target: human p75-Tumor-Necrosis-Factor-Receptor on U937 cells (human) (UniProt P20333); test: 125I-TNF-α competition, U937 cells, exp 2, mutant 8 × 10^-9 mol
[7] = target: human p75-Tumor-Necrosis-Factor-Receptor on U937 cells (human) (UniProt P20333); test: 125I-TNF-α competition, U937 cells, exp 1, mutant 4 × 10^-9 mol
[8] = target: human p75-Tumor-Necrosis-Factor-Receptor on U937 cells (human) (UniProt P20333); test: 125I-TNF-α competition, U937 cells, exp 1, mutant 2 × 10^-9 mol
[9] = target: human p75-Tumor-Necrosis-Factor-Receptor on U937 cells (human) (UniProt P20333); test: competition analysis, U937 cells against Hep-2 cells
[10] = target: human p55-Tumor-Necrosis-Factor-Receptor on Hep-2 cells (human) (UniProt P19438)
[11] = target: human p75-Tumor-Necrosis-Factor-Receptor on U937 cells (human) (UniProt P20333); test: 125I-TNF-α competition, U937 cells, exp 1, mutant 1 × 10^-9 mol
[12] = target: human p75-Tumor-Necrosis-Factor-Receptor on U937 cells (human) (UniProt P20333); test: 125I-TNF-α competition, U937 cells, exp 2, mutant […] 10^-7 mol
[13] = target: human p75-Tumor-Necrosis-Factor-Receptor on U937 cells (human) (UniProt P20333); test: 125I-TNF-α competition, U937 cells, exp 2, mutant 6 × 10^-8 mol
[14] = target: human p75-Tumor-Necrosis-Factor-Receptor on U937 cells (human) (UniProt P20333); test: competition analysis on U937 cells
[15] = target: human p75-Tumor-Necrosis-Factor-Receptor on U937 cells (human) (UniProt P20333); test: 125I-TNF-α competition, U937 cells, exp 1, mutant 1 × 10^-6 mol
[16] = target: human p75-Tumor-Necrosis-Factor-Receptor on U937 cells (human) (UniProt P20333); test: 125I-TNF-α competition, U937 cells, exp 2, mutant 5 × 10^-7 mol
[17] = target: human p75-Tumor-Necrosis-Factor-Receptor on U937 cells (human) (UniProt P20333); test: 125I-TNF-α competition, U937 cells, exp 1, mutant 1.25 × 10^-7 mol
[18] = target: human p75-Tumor-Necrosis-Factor-Receptor on U937 cells (human) (UniProt P20333); test: 125I-TNF-α competition, U937 cells, exp 1, mutant 6.4 × 10^-8 mol
[19] = target: human p75-Tumor-Necrosis-Factor-Receptor on U937 cells (human) (UniProt P20333); test: 125I-TNF-α competition, U937 cells, exp 2, mutant 1.5 × 10^-8 mol
[20] = target: human p75-Tumor-Necrosis-Factor-Receptor on U937 cells (human) (UniProt P20333); test: 125I-TNF-α competition, U937 cells, exp 1, mutant 5 × 10^-7 mol
[21] = target: human p75-Tumor-Necrosis-Factor-Receptor on U937 cells (human) (UniProt P20333); test: 125I-TNF-α competition, U937 cells, exp 2, mutant 2 × 10^-6 mol
[22] = target: native human p75-TNF-R purified from HL60 cells (human) (UniProt P20333); test: from the IC50 values of Table F, competition with 125I-TNFα; reference: the same mutein on p55-TNF-R
[23] = target: human p75-Tumor-Necrosis-Factor-Receptor on U937 cells (human) (UniProt P20333); test: 125I-TNF-α competition, U937 cells, exp 1, mutant 2 × 10^-6 mol
[24] = target: human p75-Tumor-Necrosis-Factor-Receptor on U937 cells (human) (UniProt P20333); test: 125I-TNF-α competition, U937 cells, exp 1, mutant […] 10^-7 mol
[25] = target: human p75-Tumor-Necrosis-Factor-Receptor on U937 cells (human) (UniProt P20333); test: 125I-TNF-α competition, U937 cells, exp 2, mutant 3 × 10^-8 mol
[26] = target: native human p75-TNF-R purified from HL60 cells (human) (UniProt P20333); test: competition with 125I-TNFα for p75-TNF-R, calculated from FIG. 1 (and FIG. 7)
[27] = target: human p75-Tumor-Necrosis-Factor-Receptor on U937 cells (human) (UniProt P20333); test: 125I-TNF-α competition, U937 cells, exp 1, mutant […] 10^-8 mol
[28] = target: human p75-Tumor-Necrosis-Factor-Receptor on U937 cells (human) (UniProt P20333); test: 125I-TNF-α competition, U937 cells, exp 1, mutant 8 × 10^-9 mol
[29] = target: human p75-Tumor-Necrosis-Factor-Receptor on U937 cells (human) (UniProt P20333); test: 125I-TNF-α competition, U937 cells, exp 2, mutant 4 × 10^-9 mol
[30] = target: human p75-Tumor-Necrosis-Factor-Receptor on U937 cells (human) (UniProt P20333); test: 125I-TNF-α competition, U937 cells, exp 2, mutant 1 × 10^-6 mol
[31] = target: human p75-Tumor-Necrosis-Factor-Receptor on U937 cells (human) (UniProt P20333); test: 125I-TNF-α competition, U937 cells, exp 2, mutant 1.10^-6 as printed
[32] = target: human p75-Tumor-Necrosis-Factor-Receptor on U937 cells (human) (UniProt P20333); test: 125I-TNF-α (batch 2) competition, U937 cells, exp 3, mutant 5 × 10^-7 mol
[33] = target: human p75-Tumor-Necrosis-Factor-Receptor on U937 cells (human) (UniProt P20333); test: 125I-TNF-α competition, U937 cells, exp 1, mutant 6 × 10^-8 mol
[34] = target: human p75-Tumor-Necrosis-Factor-Receptor on U937 cells (human) (UniProt P20333); test: 125I-TNF-α (batch 2) competition, U937 cells, exp 3, mutant 6 × 10^-8 mol
[35] = target: human p75-Tumor-Necrosis-Factor-Receptor on U937 cells (human) (UniProt P20333); test: 125I-TNF-α (batch 2) competition, U937 cells, exp 3, mutant 3 × 10^-8 mol
[36] = target: human p75-Tumor-Necrosis-Factor-Receptor on U937 cells (human) (UniProt P20333); test: 125I-TNF-α (batch 2) competition, U937 cells, exp 3, mutant 8 × 10^-9 mol
[37] = target: human p75-Tumor-Necrosis-Factor-Receptor on U937 cells (human) (UniProt P20333); test: 125I-TNF-α (batch 2) competition, U937 cells, exp 3, mutant 1.25 × 10^-7 mol
[38] = target: human p75-Tumor-Necrosis-Factor-Receptor on U937 cells (human) (UniProt P20333); test: 125I-TNF-α (batch 2) competition, U937 cells, exp 3, mutant 1 × 10^-6 mol
[39] = target: human p75-Tumor-Necrosis-Factor-Receptor on U937 cells (human) (UniProt P20333); test: 125I-TNF-α (batch 2) competition, U937 cells, exp 3, mutant 2 × 10^-6 mol
[40] = target: human p75-Tumor-Necrosis-Factor-Receptor on U937 cells (human) (UniProt P20333); test: 125I-TNF-α competition, U937 cells, exp 2, mutant 4 × 10^9 as printed
[41] = target: human p75-Tumor-Necrosis-Factor-Receptor on U937 cells (human) (UniProt P20333); test: 125I-TNF-α (batch 2) competition, U937 cells, exp 3, mutant […] 10^-7 mol
[42] = target: human p75-Tumor-Necrosis-Factor-Receptor on U937 cells (human) (UniProt P20333); test: 125I-TNF-α competition, U937 cells, exp 1, mutant 3 × 10^-8 mol
[43] = target: human p75-Tumor-Necrosis-Factor-Receptor on U937 cells (human) (UniProt P20333); test: 125I-TNF-α competition, U937 cells, exp 1, mutant 1.5 × 10^-8 mol
[44] = target: human p75-Tumor-Necrosis-Factor-Receptor on U937 cells (human) (UniProt P20333); test: 125I-TNF-α (batch 2) competition, U937 cells, exp 3, mutant 4 × 10^-9 mol
[45] = target: human p75-Tumor-Necrosis-Factor-Receptor on U937 cells (human) (UniProt P20333); test: 125I-TNF-α (batch 2) competition, U937 cells, exp 3, mutant 1.5 × 10^-8 mol

Chain of UniProt P20333 (P20333 other isoform, or with tags, fused parts or gaps): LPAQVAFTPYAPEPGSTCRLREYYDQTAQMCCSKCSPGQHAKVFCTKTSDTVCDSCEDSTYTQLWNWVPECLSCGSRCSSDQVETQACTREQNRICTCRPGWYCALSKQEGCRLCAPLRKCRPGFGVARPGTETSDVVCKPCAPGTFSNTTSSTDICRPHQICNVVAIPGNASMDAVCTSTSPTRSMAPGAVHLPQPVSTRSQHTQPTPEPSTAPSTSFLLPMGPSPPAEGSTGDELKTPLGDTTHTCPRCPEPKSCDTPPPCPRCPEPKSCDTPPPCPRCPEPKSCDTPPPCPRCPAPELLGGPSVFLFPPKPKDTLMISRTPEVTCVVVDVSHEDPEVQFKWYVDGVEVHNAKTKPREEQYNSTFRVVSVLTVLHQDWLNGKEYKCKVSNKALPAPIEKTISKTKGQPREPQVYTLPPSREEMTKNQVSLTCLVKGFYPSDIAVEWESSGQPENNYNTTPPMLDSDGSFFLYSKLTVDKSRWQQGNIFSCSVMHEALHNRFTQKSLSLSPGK
Chain of UniProt P19438 (P19438 30-455): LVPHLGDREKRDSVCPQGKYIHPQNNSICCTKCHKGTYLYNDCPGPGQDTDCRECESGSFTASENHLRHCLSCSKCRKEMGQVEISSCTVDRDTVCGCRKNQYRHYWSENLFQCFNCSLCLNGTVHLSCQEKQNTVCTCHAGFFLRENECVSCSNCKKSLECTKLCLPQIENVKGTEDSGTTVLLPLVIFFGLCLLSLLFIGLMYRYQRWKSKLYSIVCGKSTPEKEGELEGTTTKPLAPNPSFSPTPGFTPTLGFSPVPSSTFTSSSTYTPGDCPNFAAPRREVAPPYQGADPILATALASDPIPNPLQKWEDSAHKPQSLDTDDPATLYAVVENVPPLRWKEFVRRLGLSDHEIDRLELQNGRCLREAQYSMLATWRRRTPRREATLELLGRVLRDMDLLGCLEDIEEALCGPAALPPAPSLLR

- selectivity factor S (IC50 p75-TNF-R against IC50 p55-TNF-R) [1]: 80
Substance: Gly^29 -TNFα (ligand)

- Decrease in Affinity (with respect to TNFα) [2]: 500
- selectivity factor S (IC50 p75-TNF-R against IC50 p55-TNF-R) [22]: 294
- IC50 [26]: 5 µg/mL
Substance: Trp^32 -TNFα (ligand)
- Mean dpm [3]: 508 dpm
- Mean dpm [31]: 357 dpm
- increase in KD-value by a factor, against TNF-α [4]: > 100 fold
- Mean dpm [6]: 629 dpm
- Mean dpm [7]: 1660 dpm
- Mean dpm [32]: 1470 dpm
- Mean dpm [8]: 1700 dpm
- fold reduction of binding affinity against its affinity to p55-TNF-R [9]: 33 fold
- percent of its binding affinity to p55-TNF-R [9]: 3%
- specific activity (U/mg), cytotoxicity assay on Hep-2 cells [10]: 4.5e+07 U/mg
- specific activity on Hep-2 cells, relative value in percentage to TNF-α [10]: 155%
- Mean dpm [33]: 1330 dpm
- Mean dpm [11]: 1920 dpm
- Mean dpm [34]: 3030 dpm
- Mean dpm [35]: 3280 dpm
- Mean dpm [36]: 4040 dpm
- Mean dpm [37]: 2390 dpm
- Mean dpm [12]: 479 dpm
- Mean dpm [13]: 546 dpm
- Mean dpm [38]: 1190 dpm
- affinity, relative value in percentage to TNF-α [14]: 0.71%
- Mean dpm [15]: 777 dpm
- Mean dpm [16]: 422 dpm
- Mean dpm [17]: 1170 dpm
- Mean dpm [39]: 814 dpm
- Mean dpm [19]: 636 dpm
- Mean dpm [40]: 653 dpm
- Mean dpm [41]: 1980 dpm
- Mean dpm [42]: 1380 dpm
- Mean dpm [20]: 953 dpm
- Mean dpm [21]: 294 dpm
- Mean dpm [43]: 1490 dpm
- Mean dpm [23]: 628 dpm
- Mean dpm [24]: 1030 dpm
- Mean dpm [25]: 585 dpm
- Mean dpm [44]: 4760 dpm
- Mean dpm [28]: 1580 dpm
- Mean dpm [45]: 3620 dpm

The next lines start with the substance.

Substance: Ser^29 -TNFα (ligand)
- Decrease in Affinity (with respect to TNFα) [2]: 250
- Mean dpm [3]: 413 dpm
- increase in KD-value by a factor, against TNF-α [4]: > 100 fold
- Mean dpm [5]: 1420 dpm
- Mean dpm [6]: 603 dpm
- Mean dpm [7]: 1720 dpm
- Mean dpm [8]: 1780 dpm
- fold reduction of binding affinity against its affinity to p55-TNF-R [9]: 50 fold
- percent of its binding affinity to p55-TNF-R [9]: 2%
- specific activity (U/mg), cytotoxicity assay on Hep-2 cells [10]: 9.3e+06 U/mg
- specific activity on Hep-2 cells, relative value in percentage to TNF-α [10]: 32%
- Mean dpm [11]: 1870 dpm
- Mean dpm [12]: 380 dpm
- Mean dpm [13]: 489 dpm
- affinity, relative value in percentage to TNF-α [14]: 0.49%
- Mean dpm [15]: 632 dpm
- Mean dpm [16]: 319 dpm
- Mean dpm [17]: 1200 dpm
- Mean dpm [18]: 1320 dpm
- Mean dpm [19]: 641 dpm
- Mean dpm [20]: 949 dpm
- Mean dpm [21]: 238 dpm
- selectivity factor S (IC50 p75-TNF-R against IC50 p55-TNF-R) [22]: 28
- Mean dpm [23]: 533 dpm
- Mean dpm [24]: 983 dpm
- Mean dpm [25]: 572 dpm
- IC50 [26]: 2.5 µg/mL
- Mean dpm [27]: 1580 dpm
- Mean dpm [28]: 1710 dpm
- Mean dpm [29]: 635 dpm
- Mean dpm [30]: 263 dpm

Substance: Ser^29 -Trp^32 -TNFα (ligand)
- selectivity factor S (IC50 p75-TNF-R against IC50 p55-TNF-R) [1]: 450

Substance: Tyr^29 -TNFα (ligand)
- selectivity factor S (IC50 p75-TNF-R against IC50 p55-TNF-R) [1]: 110

Substance: Tyr^32 -TNFα (ligand)
- selectivity factor S (IC50 p75-TNF-R against IC50 p55-TNF-R) [1]: 90

Reference: patent publication US5422104
